Results as given in patent US20140274782A1, “AFFINITY REAGENTS AND METHODS FOR DETECTION, PURIFICATION, AND PROTEOMIC ANALYSIS OF METHYLATED PROTEINS” (The Board of Trustees of the Leland Stanford Junior …, priority 2013, published 2014).

T1: G9a and GLP (Homo sapiens, UniProt Q96KQ7+Q9H9B1)
T1 sequence (Q96KQ7 2-1210 limits assumed): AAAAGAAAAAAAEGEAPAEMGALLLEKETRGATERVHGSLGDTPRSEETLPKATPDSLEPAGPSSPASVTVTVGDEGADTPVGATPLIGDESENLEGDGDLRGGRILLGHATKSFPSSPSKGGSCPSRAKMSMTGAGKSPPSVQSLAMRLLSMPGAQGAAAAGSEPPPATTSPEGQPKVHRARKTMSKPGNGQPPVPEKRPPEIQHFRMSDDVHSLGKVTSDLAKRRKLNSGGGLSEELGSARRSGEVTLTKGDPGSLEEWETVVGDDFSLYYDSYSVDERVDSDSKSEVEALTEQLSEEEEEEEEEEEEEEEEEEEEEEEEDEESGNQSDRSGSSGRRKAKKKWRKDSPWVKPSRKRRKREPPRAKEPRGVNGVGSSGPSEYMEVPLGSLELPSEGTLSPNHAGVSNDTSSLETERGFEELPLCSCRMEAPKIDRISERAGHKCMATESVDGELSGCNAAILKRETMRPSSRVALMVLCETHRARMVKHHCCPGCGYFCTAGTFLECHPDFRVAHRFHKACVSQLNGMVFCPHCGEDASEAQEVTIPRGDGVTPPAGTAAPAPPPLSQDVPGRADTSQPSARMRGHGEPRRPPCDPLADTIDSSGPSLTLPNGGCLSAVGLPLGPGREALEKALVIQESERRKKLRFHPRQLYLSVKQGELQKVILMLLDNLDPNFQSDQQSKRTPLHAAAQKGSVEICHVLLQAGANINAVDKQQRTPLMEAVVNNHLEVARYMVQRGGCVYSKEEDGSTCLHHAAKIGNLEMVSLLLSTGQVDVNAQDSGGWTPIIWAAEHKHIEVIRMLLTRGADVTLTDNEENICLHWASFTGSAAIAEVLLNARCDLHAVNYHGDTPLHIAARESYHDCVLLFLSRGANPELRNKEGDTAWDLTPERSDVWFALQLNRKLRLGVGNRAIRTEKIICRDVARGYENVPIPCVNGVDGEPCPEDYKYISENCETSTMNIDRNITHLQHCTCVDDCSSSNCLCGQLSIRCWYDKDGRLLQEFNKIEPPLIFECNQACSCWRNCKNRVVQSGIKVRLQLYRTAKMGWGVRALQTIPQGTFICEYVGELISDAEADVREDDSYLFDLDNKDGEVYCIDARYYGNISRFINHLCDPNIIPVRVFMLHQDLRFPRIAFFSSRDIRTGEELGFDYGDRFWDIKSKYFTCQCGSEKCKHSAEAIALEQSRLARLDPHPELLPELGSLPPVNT
T1 sequence (Q9H9B1 2-1298 limits assumed): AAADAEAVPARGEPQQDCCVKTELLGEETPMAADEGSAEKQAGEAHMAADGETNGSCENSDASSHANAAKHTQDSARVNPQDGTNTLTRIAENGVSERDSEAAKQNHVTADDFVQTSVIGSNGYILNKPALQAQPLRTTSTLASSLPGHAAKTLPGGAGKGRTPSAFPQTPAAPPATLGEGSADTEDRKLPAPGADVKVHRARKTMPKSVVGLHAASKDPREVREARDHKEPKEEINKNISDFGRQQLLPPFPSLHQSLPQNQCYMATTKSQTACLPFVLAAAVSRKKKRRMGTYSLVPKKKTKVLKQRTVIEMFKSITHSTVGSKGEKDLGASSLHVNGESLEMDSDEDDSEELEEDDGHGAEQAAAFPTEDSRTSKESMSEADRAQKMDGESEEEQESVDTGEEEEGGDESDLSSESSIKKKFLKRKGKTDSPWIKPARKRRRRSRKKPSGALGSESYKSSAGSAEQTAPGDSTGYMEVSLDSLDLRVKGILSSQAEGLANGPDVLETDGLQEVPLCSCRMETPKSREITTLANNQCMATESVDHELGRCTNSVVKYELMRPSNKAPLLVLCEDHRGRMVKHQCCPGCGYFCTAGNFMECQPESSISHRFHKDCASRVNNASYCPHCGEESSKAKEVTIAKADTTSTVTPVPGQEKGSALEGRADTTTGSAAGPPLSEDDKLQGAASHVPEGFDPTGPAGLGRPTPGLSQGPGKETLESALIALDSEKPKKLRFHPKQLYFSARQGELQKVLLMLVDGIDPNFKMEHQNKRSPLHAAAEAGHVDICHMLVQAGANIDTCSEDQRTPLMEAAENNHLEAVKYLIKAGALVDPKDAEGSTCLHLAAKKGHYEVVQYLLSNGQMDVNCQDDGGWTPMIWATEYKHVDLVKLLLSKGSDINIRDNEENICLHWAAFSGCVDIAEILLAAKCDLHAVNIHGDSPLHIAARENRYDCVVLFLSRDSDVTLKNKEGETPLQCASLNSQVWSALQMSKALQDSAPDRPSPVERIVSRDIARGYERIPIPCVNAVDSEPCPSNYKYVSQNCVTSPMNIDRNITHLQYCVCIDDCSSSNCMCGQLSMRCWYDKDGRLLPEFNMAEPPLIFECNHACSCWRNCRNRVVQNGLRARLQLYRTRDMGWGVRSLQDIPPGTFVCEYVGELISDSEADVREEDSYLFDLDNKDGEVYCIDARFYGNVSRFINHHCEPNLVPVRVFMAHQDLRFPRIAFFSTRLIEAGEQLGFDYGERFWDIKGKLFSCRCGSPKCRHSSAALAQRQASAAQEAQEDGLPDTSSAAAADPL

B1: MCM4: protein with methylated lysine identified in 3xMBT pull-down (protein, UniProt P33991 2-863, looked up)
DNA replication licensing …: SSPASTPSRRGSRRGRATPAQTPRSEDARSSPSQRRRGEDSTSTGELQPMPTSPGVDLQSPAAQDVLFSSPPQMHSSAIPLDFDVSSPLTYGTPSSRVEGTPRSGVRGTPVRQRPDLGSAQKGLQVDLQSDGAAAEDIVASEQSLGQKLVIWGTDVNVAACKENFQRFLQRFIDPLAKEEENVGIDITEPLYMQRLGEINVIGEPFLNVNCEHIKSFDKNLYRQLISYPQEVIPTFDMAVNEIFFDRYPDSILEHQIQVRPFNALKTKNMRNLNPEDIDQLITISGMVIRTSQLIPEMQEAFFQCQVCAHTTRVEMDRGRIAEPSVCGRCHTTHSMALIHNRSLFSDKQMIKLQESPEDMPAGQTPHTVILFAHNDLVDKVQPGDRVNVTGIYRAVPIRVNPRVSNVKSVYKTHIDVIHYRKTDAKRLHGLDEEAEQKLFSEKRVELLKELSRKPDIYERLASALAPSIYEHEDIKKGILLQLFGGTRKDFSHTGRGKFRAEINILLCGDPGTSKSQLLQYVYNLVPRGQYTSGKGSSAVGLTAYVMKDPETRQLVLQTGALVLSDNGICCIDEFDKMNESTRSVLHEVMEQQTLSIAKAGIICQLNARTSVLAAANPIESQWNPKKTTIENIQLPHTLLSRFDLIFLLLDPQDEAYDRRLAHHLVALYYQSEEQAEEELLDMAVLKDYIAYAHSTIMPRLSEEASQALIEAYVDMRKIGSSRGMVSAYPRQLESLIRLAEAHAKVRLSNKVEAIDVEEAKRLHREALKQSATDPRTGIVDISILTTGMSATSRKRKEELAEALKKLILSKGKTPALKYQQLFEDIRGQSDIAITKDMFEEALRALADDDFLTVTGKTVRLL
modifications: methylated lysine
notes: protein with methylated lysine identified in 3xMBT pull-down
B2: NHP2L1: protein with methylated lysine identified in 3xMBT pull-down (protein, UniProt P55769 1-128, looked up)
NHP2-like protein 1: MTEADVNPKAYPLADAHLTKKLLDLVQQSCNYKQLRKGANEATKTLNRGISEFIVMAADAEPLEIILHLPLLCEDKNVPYVFVRSKQALGRACGVSRPVIACSVTIKEGSQLKQQIQSIQQSIERLLV
B3: SCML2: protein with methylated lysine identified in 3xMBT pull-down (protein, UniProt Q9UQR0 1-700, looked up)
Sex comb on midleg-like …: MGQTVNEDSMDVKKENQEKTPQSSTSSVQRDDFHWEEYLKETGSISAPSECFRQSQIPPVNDFKVGMKLEARDPRNATSVCIATVIGITGARLRLRLDGSDNRNDFWRLVDSPDIQPVGTCEKEGDLLQPPLGYQMNTSSWPMFLLKTLNGSEMASATLFKKEPPKPPLNNFKVGMKLEAIDKKNPYLICPATIGDVKGDEVHITFDGWSGAFDYWCKYDSRDIFPAGWCRLTGDVLQPPGTSVPIVKNIAKTESSPSEASQHSMQSPQKTTLILPTQQVRRSSRIKPPGPTAVPKRSSSVKNITPRKKGPNSGKKEKPLPVICSTSAASLKSLTRDRGMLYKDVASGPCKIVMSTVCVYVNKHGNFGPHLDPKRIQQLPDHFGPGPVNVVLRRIVQACVDCALETKTVFGYLKPDNRGGEVITASFDGETHSIQLPPVNSASFALRFLENFCHSLQCDNLLSSQPFSSSRGHTHSSAEHDKNQSAKEDVTERQSTKRSPQQTVPYVVPLSPKLPKTKEYASEGEPLFAGGSAIPKEENLSEDSKSSSLNSGNYLNPACRNPMYIHTSVSQDFSRSVPGTTSSPLVGDISPKSSPHEVKFQMQRKSEAPSYIAVPDPSVLKQGFSKDPSTWSVDEVIQFMKHTDPQISGPLADLFRQHEIDGKALFLLKSDVMMKYMGLKLGPALKLCYYIEKLKEGKYS

Target: T1, G9a and GLP
Test: Triple SILAC pull-down after UNC0638 treatment of 293T cells, DMSO/UNC0638 ratio of protein captured by 3×MBT;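 also: mass spectrometry (Q-Exactive) SILAC quantitation, DMSO/UNC0638 ratio computed after subtracting 3×MBTD355N mutant pull-down background, only proteins with at least twofold 3×MBT over mutant signal considered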
Format: cell-based
Parameters: cells were treated for 24 hours with UNC0638 at 2.5 μM or DMSO vehicle control; endogenous in cells; host or cells: HEK 293T
Details: for Relative to UNC0638 UNC Heavy: UNC0638 in heavy SILAC media; for Relative to UNC0638 UNC Light: UNC0638 in light SILAC media; for Relative to UNC0638 Average: average of UNC Light and UNC Heavy experiments
[1] = SILAC ratio DMSO/UNC0638 of protein pulled down with 3xMBT
[2] = SILAC ratio DMSO relative to UNC0638, pull-down with 3xMBT, all values in log base 2

Row | Molecule | Relative to UNC0638 UNC Heavy [1] [log base 2] | Relative to UNC0638 UNC Light [1] [log base 2] | Relative to UNC0638 Average [log base 2] | Relative to UNC0638 UNC Heavy [2] [log base 2] | Relative to UNC0638 UNC Light [2] [log base 2] | Relative to UNC0638 Average (all values in log base 2) [log base 2]
1 | B1 | 0.24 | 0.15 | 0.20 |  |  | 
2 | B2 | −0.86 | 1.33 | 0.24 |  |  | 
3 | B3 |  |  |  | 0.59 | −0.85 | −0.13
